Reference: the supplement of paper PMC7877785
± gives the uncertainty stated by the source.

Assay: self-splicing fitness, log relative to wild type (ln ratio); higher = more splicing; Tetrahymena group I intron in knt gene, E. coli kanamycin selection, DiMSum; sequences stand for … in CUCUCU…GGAGGGAAAAGUUAUCAGGCAUGCACCUGGUAGCUAGUCUUUAAACCAAUAGAUUGCAUCGGUUUAAAAGGCAAGACCGUCAAAUUGCGGGAAAGGGGUCAACAGCCGUUCAGUACCAAGUCUCAGGGGAAACUUUGAGAUGGCCUUGCAAAGGGUAUGGUAAUAAGCUGACGGACAUGGUCCUAACCACGCAGCCAAGUCCUAAGUCAACAGAUCUUCUGUUGAUAUGGAUGCAGUUCACAGACUAAAUGUCGGUCGGGGAAGAUGUAUUCUUCUCAUAAGAUAUAGUCGGACCUCUCCUUAAUGGGAGCUAGCGGAUGAAGUGAUGCAACACUGGAGCCGCUGGGAACUAAUUUGUAUGCGAAAGUAUAUUGAUUAGUUUUGGAGUACUCGUGGUCG
Procedure, shortened: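 DiMSum derived fitness as the error-weighted combination of fold changes across replicates, kanamycin versus no kanamycin, normalised to wild type. E. coli BL21(DE3) held the library, which randomised all eight P1ex-region intron nucleotides within the knt kanamycin-resistance gene on pET-22b(+). Six replicate transformations grew overnight at 37°C or 30°C on LB agar with or without 25 μg/mL kanamycin, also containing 100 μg/mL carbenicillin, 50 μM IPTG and 0.2% rhamnose, and pooled colonies were amplicon-sequenced on an Illumina HiSeq 2500.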

Row | Sequence | self-splicing fitness (ln) (30 °C) | self-splicing fitness (ln) (37 °C)
1 | AGGCAGCAAUAUUACGGAAA | -2.91 ± 0.48 | -2.14 ± 0.24
2 | UAGGAGCAAUAUUACGGGAG | -2.69 ± 0.27 | -2.96 ± 0.36
3 | UAUCAGCAAUAUUACGGCAU | -1.14 ± 0.071 | -0.0824 ± 0.075
4 | UAUAAGCAAUAUUACGUACG | -0.621 ± 0.13 | -0.0322 ± 0.15
5 | UACGAGCAAUAUUACGUCAA | – | -2.31 ± 0.46
6 | CUGCAGCAAUAUUACGGGUA | -3.32 ± 0.4 | -0.797 ± 0.14
7 | GUCGAGCAAUAUUACGAGCA | -1.76 ± 0.3 | –
8 | UGACAGCAAUAUUACGUUUC | -1.65 ± 0.29 | -1.5 ± 0.33
9 | UCCAAGCAAUAUUACGGAAA | -2.19 ± 0.2 | -1.51 ± 0.23
10 | CUCAAGCAAUAUUACGGCCC | -2.42 ± 0.41 | –
11 | GAUGAGCAAUAUUACGGCGG | -3.43 ± 0.3 | -1.88 ± 0.26
12 | GGAGAGCAAUAUUACGUCAG | -3.34 ± 0.22 | -1.75 ± 0.21
13 | GAACAGCAAUAUUACGGCAG | -2.31 ± 0.12 | -3.02 ± 0.24
14 | UGGAAGCAAUAUUACGCGUC | -0.409 ± 0.2 | -1.89 ± 0.27
15 | GGGAAGCAAUAUUACGGAAG | -0.00595 ± 0.22 | -1.47 ± 0.39
16 | ACCGAGCAAUAUUACGUGUA | -2.2 ± 0.13 | -1.49 ± 0.096
17 | AGGUAGCAAUAUUACGCAGG | -3.433 ± 0.022 | -1.88 ± 0.035
18 | GUUGAGCAAUAUUACGCUUU | -3.95 ± 0.48 | -2.45 ± 0.26
19 | CUGGAGCAAUAUUACGUAAA | -3.78 ± 0.36 | -2.22 ± 0.3
20 | AAAAAGCAAUAUUACGAAAG | -2.31 ± 0.098 | -1.03 ± 0.12
21 | GCGUAGCAAUAUUACGUGAA | -2.92 ± 0.15 | -1.49 ± 0.13
22 | UUGGAGCAAUAUUACGAUGG | -1.53 ± 0.21 | -1.54 ± 0.21
23 | AGAUAGCAAUAUUACGUCUG | -0.398 ± 0.062 | -0.143 ± 0.076
24 | GUAGAGCAAUAUUACGGCUU | -0.97 ± 0.075 | -0.03 ± 0.12
25 | CGGGAGCAAUAUUACGAAGG | -1.9 ± 0.39 | -1.74 ± 0.41
26 | AUGGAGCAAUAUUACGUCGG | -2.7 ± 0.26 | -1.13 ± 0.24

Row | Sequence | self-splicing fitness (ln) (30 °C) | self-splicing fitness (ln) (37 °C)
27 | ACAGAGCAAUAUUACGCAUA | -3.96 ± 0.31 | -1.8 ± 0.2
28 | AGUCAGCAAUAUUACGUAAA | -1.71 ± 0.12 | -0.231 ± 0.11
29 | UACAAGCAAUAUUACGGAUU | -3.61 ± 0.15 | -0.762 ± 0.09
30 | CAAUAGCAAUAUUACGGAAA | -3.49 ± 0.19 | -2.83 ± 0.32
31 | AGAUAGCAAUAUUACGAUAG | -2.88 ± 0.21 | -2.31 ± 0.18
32 | ACAUAGCAAUAUUACGAUAC | -3.6 ± 0.23 | -2.2 ± 0.25
33 | CAGCAGCAAUAUUACGUCCA | -2.61 ± 0.3 | -0.781 ± 0.22
34 | UAUAAGCAAUAUUACGUCAA | -2.24 ± 0.14 | -0.698 ± 0.11
35 | GUUAAGCAAUAUUACGUCAG | – | -2.22 ± 0.4
36 | CUCAAGCAAUAUUACGAAAA | -3.12 ± 0.28 | -2.65 ± 0.28
37 | ACUUAGCAAUAUUACGCAUA | -1.74 ± 0.12 | -1.42 ± 0.14
38 | CUUCAGCAAUAUUACGGGCA | -3.21 ± 0.4 | -2.64 ± 0.27
39 | UACAAGCAAUAUUACGCAAU | -3.44 ± 0.21 | -2.47 ± 0.23
40 | GGAUAGCAAUAUUACGGCUU | -0.686 ± 0.095 | -0.309 ± 0.11
41 | CUAUAGCAAUAUUACGGAAG | -1.87 ± 0.12 | -0.957 ± 0.13
42 | AUUGAGCAAUAUUACGCGAC | -3.45 ± 0.3 | -1.2 ± 0.24
43 | AAAGAGCAAUAUUACGGCCA | -3.01 ± 0.31 | -2.5 ± 0.29
44 | CGAAAGCAAUAUUACGGGGC | -4.34 ± 0.32 | -1.98 ± 0.19
45 | CAUUAGCAAUAUUACGGGGA | -2.73 ± 0.21 | -1.77 ± 0.26
46 | ACCAAGCAAUAUUACGAGUA | -2.81 ± 0.14 | -2.29 ± 0.13
47 | CGCAAGCAAUAUUACGAACG | -1.23 ± 0.1 | -1.03 ± 0.14
48 | UGUCAGCAAUAUUACGCGUC | -2.7 ± 0.3 | -1.51 ± 0.29
49 | GAACAGCAAUAUUACGGGGG | -2.08 ± 0.15 | -2.42 ± 0.2
50 | GAAAAGCAAUAUUACGGUUU | -0.79 ± 0.057 | -0.332 ± 0.076
51 | UGAAAGCAAUAUUACGAAAC | – | -1.79 ± 0.47
52 | UUCGAGCAAUAUUACGCCUU | -3.09 ± 0.26 | -1.64 ± 0.26

Row | Sequence | self-splicing fitness (ln) (30 °C) | self-splicing fitness (ln) (37 °C)
53 | AGCCAGCAAUAUUACGGGGU | -4.08 ± 0.19 | -2.22 ± 0.15
54 | CAUUAGCAAUAUUACGGACU | -2.75 ± 0.28 | -1.89 ± 0.23
55 | UACAAGCAAUAUUACGGCGA | -0.244 ± 0.072 | 0.0939 ± 0.087
56 | AAAAAGCAAUAUUACGUGAA | -1.24 ± 0.078 | -0.618 ± 0.11
57 | UCUGAGCAAUAUUACGUGUC | -4.14 ± 0.32 | –
58 | GGAUAGCAAUAUUACGUGGC | -2.56 ± 0.25 | –
59 | UUUGAGCAAUAUUACGUAGG | -2.52 ± 0.16 | -1.32 ± 0.23
60 | UCACAGCAAUAUUACGCCGU | -4.25 ± 0.46 | -3.02 ± 0.35
61 | UUCCAGCAAUAUUACGCGUU | -2.35 ± 0.1 | -1.6 ± 0.1
62 | GAAUAGCAAUAUUACGGCUA | -0.51 ± 0.15 | -0.595 ± 0.14
63 | UUUCAGCAAUAUUACGUGCG | -1.27 ± 0.12 | 0.0636 ± 0.11
64 | UCUUAGCAAUAUUACGCAGA | -1.55 ± 0.46 | -1.36 ± 0.29
65 | UAAUAGCAAUAUUACGGGGC | -3.12 ± 0.31 | -2.84 ± 0.31
66 | CAAUAGCAAUAUUACGUAAU | -3.35 ± 0.21 | -1.92 ± 0.18
67 | CCAUAGCAAUAUUACGGGAG | -2.96 ± 0.15 | -2.89 ± 0.25
68 | CGUCAGCAAUAUUACGAGAU | -3.93 ± 0.21 | -2.65 ± 0.17
69 | AUCAAGCAAUAUUACGUUAU | -2.29 ± 0.1 | -0.69 ± 0.09
70 | ACCUAGCAAUAUUACGUCAG | -3.93 ± 0.19 | -1.85 ± 0.1
71 | UUGCAGCAAUAUUACGUUCC | – | -2.16 ± 0.27
72 | GGUUAGCAAUAUUACGCCAA | -1.42 ± 0.34 | -2.43 ± 0.33
73 | UCUUAGCAAUAUUACGUAAC | -3.34 ± 0.26 | -1.95 ± 0.32
74 | UAGCAGCAAUAUUACGCUUC | -3.05 ± 0.34 | -2.25 ± 0.33
75 | CUUUAGCAAUAUUACGCACU | -3.69 ± 0.44 | -1.83 ± 0.19
76 | ACCAAGCAAUAUUACGAUAG | -4.36 ± 0.23 | -2.7 ± 0.21
77 | CAACAGCAAUAUUACGACCC | -1.31 ± 0.13 | -2.62 ± 0.33
78 | CGAAAGCAAUAUUACGACAC | -2.69 ± 0.18 | -1.56 ± 0.26
